Article doi:10.1101/2021.05.09.442808 (bioRxiv, 2021)

Target: HKU1 S 2P prefusion-stabilized ectodomain trimer (HCoV-HKU1, isolate  (N5 used), UniProt Q0ZME7, stabilised)
Experiment: SPR

B1: S2P6 Fab fragment (Fab, V domains shown)
VH: EVQLVQSGAEVKKPGASVKVSCKASGYTFTSQYMHWVRQAPGQGLEWIGIINPSGVHTSYAQKFQGRVTLTRDTSTSTLYMELSSLRSEDTAVYYCARGSPKGAFDYWGQGTLVTVSS
VL: not shown
  Kd: ~120 nM
